Experiments:
[1] = molecular target: T1, J08 A.92RW020V1V2/N156QN160Q (HIV-1); assay: ELISA, mAb 0.001-100 ug/ml on coated V1V2 scaffold, OD450
T1 construct: also called J08 A.92RW020VV1V2/N156QN160Q

gp70 B.HXB2/BALV1V2 [2] = molecular target: T2, gp70 B.HXB2/BALV1V2 (murine leukemia virus; HIV-1); assay: as above
T2 chain: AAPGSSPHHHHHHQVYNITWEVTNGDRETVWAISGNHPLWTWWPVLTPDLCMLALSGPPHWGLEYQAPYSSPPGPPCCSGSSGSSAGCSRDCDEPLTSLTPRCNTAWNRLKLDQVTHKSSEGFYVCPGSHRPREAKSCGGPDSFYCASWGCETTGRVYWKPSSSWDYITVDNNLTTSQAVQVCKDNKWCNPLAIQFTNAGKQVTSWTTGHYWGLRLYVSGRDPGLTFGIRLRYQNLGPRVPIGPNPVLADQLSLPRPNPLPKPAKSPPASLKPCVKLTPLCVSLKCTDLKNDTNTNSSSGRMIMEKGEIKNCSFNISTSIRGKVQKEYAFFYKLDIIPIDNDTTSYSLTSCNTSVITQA

[3] = molecular target: T3, gp70 B.HXB2/BALV1V2/N156QN160Q (murine leukemia virus; HIV-1); assay: as above
T3 chain: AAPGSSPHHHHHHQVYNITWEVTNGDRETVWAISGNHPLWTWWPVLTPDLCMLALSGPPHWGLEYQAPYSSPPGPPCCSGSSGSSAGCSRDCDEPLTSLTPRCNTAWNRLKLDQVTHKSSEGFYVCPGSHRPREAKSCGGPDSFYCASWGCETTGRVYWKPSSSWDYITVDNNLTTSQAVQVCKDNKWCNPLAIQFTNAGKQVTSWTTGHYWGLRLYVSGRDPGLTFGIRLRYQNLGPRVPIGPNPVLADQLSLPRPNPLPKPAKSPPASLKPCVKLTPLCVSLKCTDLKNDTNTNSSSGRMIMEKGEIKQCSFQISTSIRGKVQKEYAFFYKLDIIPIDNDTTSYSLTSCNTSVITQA

[4] = molecular target: T4, J08 B.HXB2/BALV1V2N156QN160Q (HIV-1); assay: as above
T4 chain: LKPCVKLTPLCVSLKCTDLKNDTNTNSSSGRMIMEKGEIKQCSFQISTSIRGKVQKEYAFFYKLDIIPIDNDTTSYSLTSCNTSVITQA

AE.A244 gD+ gp120 N160K = molecular target: T5, AE.A244 gD+ gp120 N160K (HIV-1); assay: ELISA
T5 construct: domain: gp120

A.9004SS V1/V2 tags = molecular target: T6, A.9004SS V1/V2 tags; assay: ELISA, OD405 at 10 ug/ml
T6 V1V2 tags construct: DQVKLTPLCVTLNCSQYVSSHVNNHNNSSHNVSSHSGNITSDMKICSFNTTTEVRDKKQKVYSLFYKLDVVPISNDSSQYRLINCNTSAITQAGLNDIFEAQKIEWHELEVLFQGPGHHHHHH

AE.con gp140CF = assay: ELISA, OD405 at 10 ug/ml
B.040 gp140C = assay: ELISA, OD405 at 10 ug/ml
B.62357 gp140C = molecular target: T7, B.62357 gp140C; assay: ELISA, OD405 at 10 ug/ml
T7 construct: also called B.62357 140C

B.63521_V1/V2 tags = assay: ELISA, OD405 at 10 ug/ml
C.1086 gp140 = molecular target: T8, C.1086 gp140; assay: ELISA, OD405 at 10 ug/ml
T8 construct: also called C.1086gp140C

Con 6 gp120 = assay: ELISA, OD405 at 10 ug/ml
D.9009SA V1/V2 tags = assay: ELISA, OD405 at 10 ug/ml
G.con gp140CF = assay: ELISA, OD405 at 10 ug/ml
gp70 B.HXB2/BALV1V2 [5] = molecular target: T2, gp70 B.HXB2/BALV1V2; assay: ELISA
[6] = molecular target: T3, gp70 B.HXB2/BALV1V2/N156QN160Q; assay: ELISA
gp70 B.CaseA2 V1/V2 [7] = molecular target: T9, gp70 B.CaseA2 V1/V2 (HIV-1 V1V2 on murine leukemia virus gp70); assay: ELISA
T9 construct: also called B.gp70CaseA2 V1/V2; gp70 B.CaseAV1V2
T9 chain: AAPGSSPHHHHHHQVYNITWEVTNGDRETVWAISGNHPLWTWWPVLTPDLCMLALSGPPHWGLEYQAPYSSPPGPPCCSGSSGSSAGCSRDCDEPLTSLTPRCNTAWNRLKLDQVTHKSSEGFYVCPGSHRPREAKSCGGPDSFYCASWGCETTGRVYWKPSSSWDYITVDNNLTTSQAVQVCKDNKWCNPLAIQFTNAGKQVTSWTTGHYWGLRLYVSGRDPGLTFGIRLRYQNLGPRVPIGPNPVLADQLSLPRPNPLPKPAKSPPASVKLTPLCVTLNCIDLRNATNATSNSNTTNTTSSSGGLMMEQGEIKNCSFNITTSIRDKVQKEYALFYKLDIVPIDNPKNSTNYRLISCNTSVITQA

J08 B.HXB2/BALV1V2 = molecular target: T10, J08 B.HXB2/BALV1V2 (HIV-1); assay: ELISA
T10 construct: also called J08 B.HXB/BAL V1V2
T10 chain: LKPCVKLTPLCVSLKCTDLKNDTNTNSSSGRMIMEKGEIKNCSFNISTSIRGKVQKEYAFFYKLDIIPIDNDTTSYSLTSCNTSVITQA

[8] = molecular target: T4, J08 B.HXB2/BALV1V2N156QN160Q; assay: ELISA
gp70 B.CaseA2 V1/V2 [9] = molecular target: T9, gp70 B.CaseA2 V1/V2; assay: SPR (BIAcore), mAb captured on anti-Fc surface, V1V2 protein injected as analyte, Synagis surface subtracted, global 1:1 Langmuir fit

B1: PG16 (antibody, V domains shown)
VH: QEQLVESGGGVVQPGGSLRLSCLASGFTFHKYGMHWVRQAPGKGLEWVALISDDGMRKYHSDSMWGRVTISRDNSKNTLYLQFSSLKVEDTAMFFCAREAGGPIWHDDVKYYDFNDGYYNYHYMDVWGKGTTVTVSS
VL: QSALTQPASVSGSPGQTITISCNGTSSDVGGFDSVSWYQQSPGKAPKVMVFDVSHRPSGISNRFSGSKSGNTASLTISGLHIEDEGDYFCSSLTDRSHRIFGGGTKVTVL
notes: also called mAb PG16; bnAb PG16
B1: no binding (tested: 100 ug/ml) [1]; no binding (tested: 100 ug/ml) (gp70 B.HXB2/BALV1V2 [2]); no binding (tested: 100 ug/ml) [3]. B1: no binding (tested: 100 ug/ml) [4].

B2: CH59 (antibody, V domains shown)
VH: EVQLVESGGGLVQPGRSLRLSCAASGFTFDDGAMHWVRQAPGKGLEWVSGISWNSNIIAYADSVKGRFTISRDNAKNSLYLEMNSLRVEDTALYYCAKDSPRGELPLNYWGQGTLVTVSS
VL: SYELTQPPSVSVSPGQTARITCSGDALPKNYAYWYQQKSGQAPVLVIYEDSKRPSGIPERFSGSSSGTMATLTISGAQVEDEADYYCYSTDSSGNHRVFGGGTKLTVL
notes: also called mAb CH59
In the case of B2, the EC50 (AE.A244 gD+ gp120 N160K) is reported as 0.03 nM, the binding result (A.9004SS V1/V2 tags) is reported as “binds” and the binding result (AE.con gp140CF) is reported as “binds”. B2: no binding (tested: 10 ug/ml) (B.040 gp140C); no binding (tested: 10 ug/ml) (B.62357 gp140C); no binding (tested: 10 ug/ml) (B.63521_V1/V2 tags). B2: binds (C.1086 gp140); no binding (tested: 10 ug/ml) (Con 6 gp120); binds (D.9009SA V1/V2 tags). B2: no binding (tested: 10 ug/ml) (G.con gp140CF).

B3: 697D (antibody, V domains shown)
VH: QVQLVQSGAEVKKPGSSVKVSCKASGGNFNTYTISWVRQAPGQGLEWMGRIIPIFGIVNPAQKFPGRVTINVDKSTNTAYMELSSLRSEDTAVYYCATSGVGLHFGYFDYWGQGTQVTVSS
VL: QSVLTQPPSVSGAPGQRVTISCTGSSSNIGAHYDVHWYQQLPGTAPKLLIYGNSNRPSGVPDRFSGSKSGTSASLAITGLQAEDEADYYCQSYDSSLSGYVFGTGTKVTVL
notes: also called mAb 697D; V2 conformational mAb 697D
B3 gave an EC50 (gp70 B.HXB2/BALV1V2 [5]) of 0.64 nM, an EC50 [6] of over 667 nM and an EC50 (gp70 B.CaseA2 V1/V2 [7]) of 0.05 nM. It also gave an EC50 (J08 B.HXB2/BALV1V2) of 0.12 nM, an EC50 [8] of 66 nM and a Kd (gp70 B.CaseA2 V1/V2 [9]) of 36.5 nM. It also gave a koff (gp70 B.CaseA2 V1/V2 [9]) of 0.00038 s⁻¹ and a kon (gp70 B.CaseA2 V1/V2 [9]) of 10000 M⁻¹ s⁻¹.

— patent US9988424 (DUKE UNIVERSITY, dated 2018)
